Assay results from patent US20240343803A1 (SHANDONG SIMCERE BIOPHARMACEUTICAL, published 2024).

Legend:
[1] = target: T1, human PVRIG-mFc protein (Acro, PVG-H5253) (human, UniProt Q6DKI7 41-171, limits assumed); assay: competition FACS; blocked: human PVRIG-mFc binding to CHO-K1-CD112 cells
T1 construct: bought reagent; also called PVRIG-ECD-mFc
T1 sequence (looked up): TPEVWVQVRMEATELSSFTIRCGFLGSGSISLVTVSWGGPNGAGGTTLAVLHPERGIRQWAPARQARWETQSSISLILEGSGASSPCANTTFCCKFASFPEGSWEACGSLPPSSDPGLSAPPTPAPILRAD
Experimental: After incubation, the cells were added with staining buffer (2% FBS+PBS) to stop staining, centrifuged at 350×g to remove the supernatant, washed twice and resuspended with staining buffer to a density of 1×10⁶ cells/mL. The cells were plated into a 96-well plate (50 μL of cell suspension per well) for further use. A working solution of human PVRIG-mFc protein (Acro, PVG-H5253) prepared with staining buffer, 1 μg/mL (four-fold concentration), was added into a 96-well plate (50 μL PVRIG-mFc working solution per well). […] The diluted antibodies were added to the well containing 50 μL of PVRIG-mFc. The plate was placed on a microplate shaker at 400 rpm for 1 minute to fully mix the antibodies and PVRIG-mFc proteins, and then incubated at 4° C. for 30 minutes. After the incubation, the cell suspension prepared above (100 μL) was added into the wells, gently mixed with the pipette tip and incubated at 4° C. for 30 minutes. After the incubation, the cells were washed twice with staining buffer (200 μL per well) and centrifuged at 350×g for 5 minutes to discard the supernatant. The PE goat anti-mouse IgG Fc antibody (Biolegend, 405337) was diluted 250 times with staining buffer, added into the washed wells (100 μL per well), mixed well, and stained at 4° C. for 30 minutes. After staining, the cells were washed twice with staining buffer, finally resuspended with 200 μL staining buffer and analyzed by flow cytometry (BD, Canto II). The weaker the fluorescence signal, the stronger the ability of the antibodies blocks the binding of CHO-K1 human CD112 cells to the PVRIG-mFc protein. An antibody binding curve was drawn with concentration of antibodies as the abscissa and the corresponding Mean Fluorescence Intensity (MFI) as the ordinate. The IC50 value of the antibodies and the AUC value of the binding curve were calculated by using a Four Parameter Logistic Fit (GraphPadPrism9). The smaller the IC50 value and AUC value, the stronger the ability of the antibodies competes with CHO-K1-CD112 cells to bind to human PVRIG-mFc protein.

[2] = target: T2, human PVRIG-his (AcroBiosystems, Cat NO. PVG-H52H4) (human, UniProt Q6DKI7 41-171, limits assumed); assay: competition ELISA on coated human PVRIG-his; blocked ligand human PVRL2-mFc
T2 construct: treated as the same protein; also called human PVRIG-His protein; Human PVRIG-His, Acro C227P1-9ARF1-T4
T2 sequence (looked up): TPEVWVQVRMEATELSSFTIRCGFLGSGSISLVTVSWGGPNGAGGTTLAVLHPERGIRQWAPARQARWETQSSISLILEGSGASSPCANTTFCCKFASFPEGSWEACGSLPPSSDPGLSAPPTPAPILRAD
Experimental: The ELISA plate was pre-coated with 100 μL/well of 0.5 μg/mL human PVRIG-his protein (AcroBiosystems, Cat NO. PVG-H52H4). The tested anti-PVRIG antibodies were diluted from the highest concentration of 16 nM (two-fold concentration). The diluted antibodies were mixed with 18 ng/ml human PVRL2-mFc (AcroBiosystems, Cat NO. CD2-H5257) in equal volume, added into the plate (100 μL/well), and incubated with shaking at room temperature for 2.0 hours. […] A HRP substrate, TMB (Thermo, Cat NO. 34029) was added into wells after washing the plate again for color development. After adding a termination solution to terminate the reaction, the absorbance value was read by a microplate reader (MD i3×). An inhibiting curve was drawn with concentration of antibodies as the abscissa and the corresponding OD value as the ordinate. The IC50 value was calculated by using a Four Parameter Logistic Fit (GraphPadPrism9). The smaller the IC50 value, the stronger the ability of the antibodies inhibits the binding between PVRIG and PVRL2. The positive and negative controls are the same as in Example 8.

B1: PVRIG-A15 (VHH)
VHH: QVQLVESGGGLVQAGGSLRLSCVASGRTFSANTMAWFRQAPGKEREFVAYTRWTDDNTDYASYADFVKGRFTAFRDNTRNTMYLQMNRLRPEDTAVYYCAAATTRGTYYSAGDYNSWGQGTQVTVSS
notes: tested as VHH-hinge-CH2-CH3 (human IgG1-Fc); not shown: human IgG1 hinge-CH2-CH3
B1 was tested, and the “IC50 (read off the curve)” value [1] was about 1 nM and the “IC50 (read off the curve)” value [2] was about 2 nM.

B2: PVRIG-A30 (VHH)
VHH: QVQLVESGGGLVQPGGSLRLSCAASGRTDSMNVMGWFRRAPGKEREFVARIKWNGDTTYTAYADFLKGRFTLYGAVARNRVYLQMNSLQPEDTAVYYCAAGEVSGSSYSPDYGMHYWGKGTLVTVSS
notes: as for B1
For B2, the “IC50 (read off the curve)” value [1] was about 1 nM and the “IC50 (read off the curve)” value [2] was about 2 nM.

B3: PVRIG-A75 (VHH)
VHH: QLQLVESGGGLVQSGGSLRLSCAASGRTRSMYVMGWFRQAPGKEREFVGRIKWSGDTTYTSYADFVKGRFTLYGNQARNTVYLQMNSLKPEDTAVYSCAASKFPVSGVPEHYDYWGQGTQVTVSS
notes: as for B1
With B3 the “IC50 (read off the curve)” value [1] was about 0.8 nM and the “IC50 (read off the curve)” value [2] was about 1 nM.

B4: PVRIG-A113 (VHH)
VHH: QLQLVESGGGLVQSGGSLRLSCAASGRTRSMYVMGWFRQAPGKEREFVGRIKWSGDTTYTSYADFVKGRFTLYGNQARNTVYLQMNSLKPEDTAVYYCAALPSDYDYRAASYGVDYWGKGTLVTVSS
notes: as for B1
In the case of B4, the “IC50 (read off the curve)” value [1] is reported as about 1 nM and the “IC50 (read off the curve)” value [2] is reported as about 1 nM.
